Drawing on PMC3280215, this text covers Kd, fold less than the interaction with m8 and stoichiometry N for 2 molecules.

The target of assay [1] is engineered outer domain mini-V3 (glycosylated gp120 outer domain construct containing a truncated V3 loop) (HIV-1).
The target of assay [2] is soluble, partially deglycosylated 664G Env trimer (HIV-1). The experiment in a line: negative-stain EM reconstruction.

Broadly, the Kd is a measure of binding affinity in units of concentration. Low readings indicate tighter binding, high ones weaker binding. Usually stoichiometry N stands for a count of units in the complex or per binding partner.

B1: PGT 128 (format not stated for the experiment) (antibody, V domains shown)
VH: QPQLQESGPTLVEASETLSLTCAVSGDSTAACNSFWGWVRQPPGKGLEWVGSLSHCASYWNRGWTYHNPSLKSRLTLALDTPKNLVFLKLNSVTAADTATYYCARFGGEVLRYTDWPKPAWVDLWGRGTLVTVSS
VL: QSALTQPPSASGSPGQSITISCTGTSNNFVSWYQQHAGKAPKLVIYDVNKRPSGVPDRFSGSKSGNTASLTVSGLQTDDEAVYYCGSLVGNWDVIFGGGTKLTVL
Turning to B1, in assay [1], the Kd amounted to 46 nM and the fold less than the interaction with m8 worked out at 8 fold.

B2: Fab PGT 128 (Fab, V domains shown)
VH: QPQLQESGPTLVEASETLSLTCAVSGDSTAACNSFWGWVRQPPGKGLEWVGSLSHCASYWNRGWTYHNPSLKSRLTLALDTPKNLVFLKLNSVTAADTATYYCARFGGEVLRYTDWPKPAWVDLWGRGTLVTVSS
VL: QSALTQPPSASGSPGQSITISCTGTSNNFVSWYQQHAGKAPKLVIYDVNKRPSGVPDRFSGSKSGNTASLTVSGLQTDDEAVYYCGSLVGNWDVIFGGGTKLTVL
Regarding B2, the stoichiometry N in assay [2] is 3.
